We go through one substance from PMC11398526.

Assay [1] concerns the target steroid receptor coactivator 3 (SRC3), full-length, Strep II tagged (human) (UniProt Q9Y6Q9). Briefly: SEC-MALS.
Assay [2] concerns the target progesterone receptor isoform A (PR-A), full-length, Strep II tagged (human) (UniProt P06401). Description: SEC-MALS.

steroid receptor coactivator 3 (SRC3), full-length, Strep II tagged (human), sequence (Q9Y6Q9 whole entry, canonical isoform): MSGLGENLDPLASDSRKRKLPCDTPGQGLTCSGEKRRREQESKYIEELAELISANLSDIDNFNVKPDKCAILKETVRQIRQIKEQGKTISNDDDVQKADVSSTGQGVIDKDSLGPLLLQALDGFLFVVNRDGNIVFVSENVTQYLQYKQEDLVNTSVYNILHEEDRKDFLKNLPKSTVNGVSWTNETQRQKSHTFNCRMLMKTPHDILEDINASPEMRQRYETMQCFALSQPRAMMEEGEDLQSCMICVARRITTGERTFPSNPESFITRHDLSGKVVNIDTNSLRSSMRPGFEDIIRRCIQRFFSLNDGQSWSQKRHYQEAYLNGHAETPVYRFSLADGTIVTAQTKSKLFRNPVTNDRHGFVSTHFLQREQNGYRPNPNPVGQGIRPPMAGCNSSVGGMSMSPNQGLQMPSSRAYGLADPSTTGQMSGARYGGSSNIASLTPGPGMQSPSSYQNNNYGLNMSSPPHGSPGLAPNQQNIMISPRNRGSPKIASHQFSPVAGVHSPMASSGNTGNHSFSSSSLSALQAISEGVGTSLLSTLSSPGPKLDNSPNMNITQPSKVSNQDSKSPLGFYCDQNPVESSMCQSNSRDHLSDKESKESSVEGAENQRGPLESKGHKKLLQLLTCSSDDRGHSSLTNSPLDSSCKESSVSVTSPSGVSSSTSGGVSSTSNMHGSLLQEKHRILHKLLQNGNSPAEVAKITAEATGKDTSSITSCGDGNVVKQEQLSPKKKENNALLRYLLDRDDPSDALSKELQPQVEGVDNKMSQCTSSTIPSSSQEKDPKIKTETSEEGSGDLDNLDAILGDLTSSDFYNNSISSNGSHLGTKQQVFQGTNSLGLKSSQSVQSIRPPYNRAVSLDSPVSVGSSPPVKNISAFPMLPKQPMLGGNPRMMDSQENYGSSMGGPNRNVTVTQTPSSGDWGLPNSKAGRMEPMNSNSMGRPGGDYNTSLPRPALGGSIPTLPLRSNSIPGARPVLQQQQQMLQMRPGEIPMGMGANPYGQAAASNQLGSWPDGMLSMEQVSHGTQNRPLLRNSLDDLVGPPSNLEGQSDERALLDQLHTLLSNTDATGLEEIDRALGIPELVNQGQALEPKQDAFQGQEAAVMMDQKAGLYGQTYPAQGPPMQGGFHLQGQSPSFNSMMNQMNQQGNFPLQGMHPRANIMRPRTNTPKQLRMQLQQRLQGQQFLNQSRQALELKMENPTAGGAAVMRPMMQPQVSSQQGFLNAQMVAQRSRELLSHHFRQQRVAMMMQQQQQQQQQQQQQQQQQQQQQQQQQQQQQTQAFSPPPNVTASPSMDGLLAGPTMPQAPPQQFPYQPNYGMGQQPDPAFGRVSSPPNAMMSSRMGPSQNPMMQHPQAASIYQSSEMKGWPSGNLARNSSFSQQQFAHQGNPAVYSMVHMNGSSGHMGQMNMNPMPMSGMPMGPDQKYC
progesterone receptor isoform A (PR-A), full-length, Strep II tagged (human), sequence (P06401 165-933): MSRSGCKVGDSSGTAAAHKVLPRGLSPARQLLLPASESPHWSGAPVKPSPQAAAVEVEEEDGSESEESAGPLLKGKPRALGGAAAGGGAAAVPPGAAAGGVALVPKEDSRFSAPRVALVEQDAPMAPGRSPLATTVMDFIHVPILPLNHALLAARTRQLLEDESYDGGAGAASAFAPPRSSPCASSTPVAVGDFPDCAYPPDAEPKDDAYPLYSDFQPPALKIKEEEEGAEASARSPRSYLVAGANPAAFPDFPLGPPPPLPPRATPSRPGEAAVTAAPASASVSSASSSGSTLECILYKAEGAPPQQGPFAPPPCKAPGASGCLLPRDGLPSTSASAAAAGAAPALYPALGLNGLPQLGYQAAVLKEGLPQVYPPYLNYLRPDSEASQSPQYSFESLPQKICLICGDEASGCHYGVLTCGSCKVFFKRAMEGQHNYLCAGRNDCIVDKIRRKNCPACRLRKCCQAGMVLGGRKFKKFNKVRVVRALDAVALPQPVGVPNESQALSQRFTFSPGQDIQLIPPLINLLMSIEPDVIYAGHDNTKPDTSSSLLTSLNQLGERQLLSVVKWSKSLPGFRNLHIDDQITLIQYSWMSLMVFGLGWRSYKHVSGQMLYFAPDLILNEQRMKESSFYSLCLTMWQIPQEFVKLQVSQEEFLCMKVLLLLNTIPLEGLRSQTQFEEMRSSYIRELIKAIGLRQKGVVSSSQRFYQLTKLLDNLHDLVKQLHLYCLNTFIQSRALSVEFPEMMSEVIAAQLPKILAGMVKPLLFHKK

“histone acetyltransferase p300, full-length, Strep II tagged, Q09472 1-2414” displayed a stoichiometry N (p300 per SRC3) in assay [1] of 1. The substance also had a stoichiometry N (p300 per PR-A) in assay [2] of 0.5.
